# Laboratory results reported in patent publication US20240263208A1, “CYTOCHROME P450 ENZYME” (HYPHA DISCOVERY LTD., priority 2021, published 2024).
# Key:
# Format in all cases: biochemical
# [1] = Oxidase activity testing against solifenacin; conditions: substrate Solifenacin
# In short: (§1)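 Reconstituted recombinant P450 with ferredoxin and ferredoxin reductase was incubated with 0.1 mg/ml substrate in 100 mM potassium phosphate pH 8.0, 5 mM MgCl2 at 27° C with shaking. Reactions were started with a G6P/NADP+/G6PDH cofactor mix, run 16-20 hours, acetonitrile-quenched, and % conversion measured by UPLC-MS.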
# [2] = Oxidase activity testing against vanoxerine; conditions: substrate Vanoxerine
# In short: as §1
# [3] = Oxidase activity testing against sclareol; conditions: substrate Sclareol, UPLC-MS UV or MS peak areas
# In short: as §1
# [4] = Oxidase activity testing against BIRB796; conditions: substrate BIRB796
# In short: as §1
# [5] = Oxidase activity testing against ebastine; conditions: substrate Ebastine
# In short: as §1
# [6] = Oxidase activity testing against propanalol; conditions: substrate Propanalol
# In short: as §1
# [7] = Oxidase activity testing against valsartan; conditions: substrate Valsartan
# In short: as §1
# [8] = Oxidase activity testing against buparvaquone; conditions: substrate Buparvaquone
# In short: as §1
# [9] = Oxidase activity testing against tolbutamide; conditions: substrate Tolbutamide
# In short: as §1
# [10] = Oxidase activity testing against ruxolitinib; conditions: substrate Ruxolitinib
# In short: as §1
# [11] = Oxidase activity testing, lyophilised recombinant P450/ferredoxin SeuF08/ferredoxin reductase SCF15A against ambroxide
# Protocol: (§2) Lyophilised material of recombinant P450, ferredoxin and ferredoxin reductase proteins was made as described in Example 4 and reconstituted in high purity water to the original volume. Biocatalysis was performed with shaking incubation at 27° C. in the following conditions: 100 mM potassium phosphate pH 8.0, 5 mM MgCl2 (both present in the reconstituted enzyme preparation) and 0.1 mg/ml substrate compound such as ambroxide (Sigma-Aldrich, UK), carbamazepine (Sigma-Aldrich, UK), diclofenac (Sigma-Aldrich, UK), tivantinib (MedChemtronica, Sweden), clarithromycin (Tokyo Chemical Industry, Japan), sclareol (Sigma-Aldrich, UK), celecoxib (LC Laboratories, USA), buparvaquone (Sigma-Aldrich, UK), BIRB796 (MedChemExpress, USA), vanoxerine (CiVentiChem, USA), valsartan (Tokyo Chemical Industry, Japan), ruxolitinib (LC Laboratories, USA), perindopril (Selleckchem, USA), solifenacin (Key Organics, UK), 7-ethoxycoumarin (Tokyo Chemical Industry, Japan), tofacitinib (LC Laboratories, USA), ebastine (Key Organics, UK), efavirenz (Key Organics, UK), propanalol (Sigma-Aldrich, UK) and tolbutamide (Key Organics, UK).
# (§3) Concentrations of P450, ferredoxin and ferredoxin reductase were as extracted (Example 4). Reactions were initiated by addition of 10× stock of cofactor mixture (50 mM G6P, 10 mM NADP+, 10 UN/ml G6PDH) to provide a final volume of e.g., 10 μl to 90 μl for 100 μl total reaction volumes. After 16-20 hours, reactions were extracted with an equal volume of acetonitrile, centrifuged to remove precipitated proteins and conversion assessed by UPLC-MS analysis.
# (§4) UPLC Data were Obtained as Follows: • Column: Acquity UPLC BEH Shield RP18 1.7 μm 2.1 mm i.d. 50 mm length • Solvents: H2O, B: Acetonitrile, both with 0.1% Formic acid • Flow rate: 1.0 ml/min • Detector: Waters Acquity UPLC PDA (UV-Vis detection) and Waters Acquity UPLC QDA (MS)
# (§5) To confirm the identities of reaction products where known, their chromatographic retention time, mass and ultraviolet spectra were compared with those of authentic metabolite standards.
# Representative results for the % conversions of ambroxide to oxidised (+16 Da) products for single point mutants at position T109 are shown in Table 2 below.
# [12] = Oxidase activity testing against efavirenz; conditions: substrate Efavirenz
# In short: as §1
# [13] = Oxidase activity testing against celecoxib; conditions: substrate Celecoxib
# In short: as §1
# [14] = Oxidase activity testing against clarithromycin; conditions: substrate Clarithromycin
# In short: as §1
# [15] = Oxidase activity testing against carbamazepine
# Protocol: as §2, §3, §4, §5
# Representative results for the % conversions of carbamazepine to oxidised (+16 Da) products for single point mutants at position L198 are shown in Table 3 below.
# [16] = Oxidase activity testing against perindopril; conditions: substrate Perindopril
# In short: as §1
# [17] = Oxidase activity testing against tofacitinib; conditions: substrate Tofacitinib
# In short: as §1
# [18] = Oxidase activity testing against 7-ethoxycoumarin; conditions: substrate 7-ethoxycoumarin
# In short: as §1
# [19] = oxidised ambroxide product, relative MS peak area
molecule,measurement,setting,value
"SeuC10: native CYP450 from Streptomyces eurythermus NRRL 2539, SEQ ID NO: 2 (protein, listed as Streptomyces eurythermus) MKIGTTHLTRLRGLSMTELTDITGPAAQAETVAFPQDRTCPYHPPTGYDPLRDGRPLSRVTLYDGREVWLVTAQATARALLADPRLSTDRRRDGFPVPTPRFAAGRDRTLALLGLDDPEHHRQRRLLIPSFTLKRATAQRPWIQRIVDELLDAMIARGPVADLVSAFALPVPSMVICELLGVPYADHEFFEEQSRRLLRGPTGADTTDARDRLEAYLGDLIDAKAKEAEPGDGILDDLVHNRLRAGELDRSVLVSLAVILLVAGHETTANMISLGTYTLLQHPERLAELRADPSLLPAVVEELLRMLSIAEGLQRLALEDIEIDGITIRAGEGVLFSTSVINRDTAVYEDPDDLDFHRADRHHVAFGFGIHQCLGQNLARAELEIALGSLFTRLPGLRLAAPAEEIPFKPGDTVQGMLELPVTW",Average % conversion,[1]; Batch 1,5.3%
same,Average % conversion,[1]; Batch 2,7.2%
same,Average % conversion,[2]; Batch 1,75.8%
same,Average % conversion,[2]; Batch 2,65.8%
same,Average % conversion,[3]; Batch 1,38.5%
same,Average % conversion,[3]; Batch 2,35.5%
same,Average % conversion,[4]; Batch 1,83.1%
same,Average % conversion,[4]; Batch 2,78.8%
same,Average % conversion,[5]; Batch 1,8.8%
same,Average % conversion,[5]; Batch 2,4.5%
same,Average % conversion,[6]; Batch 1,0%
same,Average % conversion,[6]; Batch 2,0%
same,Average % conversion,[7]; Batch 1,20.1%
same,Average % conversion,[7]; Batch 2,20.8%
same,Average % conversion,[8]; Batch 1,23.5%
same,Average % conversion,[8]; Batch 2,32.9%
same,Average % conversion,[9]; Batch 1,32.2%
same,Average % conversion,[9]; Batch 2,37.7%
same,Average % conversion,[10]; Batch 1,80.9%
same,Average % conversion,[10]; Batch 2,98.6%
same,+16 Da (1.50 min) 253 m/z,[11]; [19],72.2%
same,+16 Da (1.60 min) 253 m/z,[11]; [19],5.0%
same,+16 Da (2.04 min) 253 m/z,[11]; [19],0.0%
same,reaction products from ambroxide (in words),"[11]; products at 1.50, 1.61 and 2.04 minutes",produce the product at 1.50 as the major product
same,Ambroxide (2.22 min) 237 m/z,"[11]; remaining substrate, relative MS peak area, 0.1 mg/ml ambroxide, 27° C., 16-20 hours",22.8%
same,Average % conversion,"[11]; substrate ambroxide, relative MS peak areas",77.2%
same,Average % conversion,[12]; Batch 1,0%
same,Average % conversion,[12]; Batch 2,0%
same,Average % conversion,[13]; Batch 1,29.4%
same,Average % conversion,[13]; Batch 2,22.2%
same,Average % conversion,[14]; Batch 1,0%
same,Average % conversion,[14]; Batch 2,0%
same,+16 Da (1.18 min) 253 m/z,"[15]; 2-hydroxycarbamazepine, relative MS peak area",0.0%
same,+16 Da (1.14 min) 253 m/z,"[15]; carbamazepine epoxide, relative MS peak area",43.6%
same,reaction products from carbamazepine (in words),"[15]; new product at 1.18 minutes identified as 2-hydroxycarbamazepine, epoxide at 1.14 minutes",carbamazepine epoxide as the only reaction product
same,Parent (1.31 min) 237 m/z,"[15]; remaining carbamazepine, relative MS peak area, 0.1 mg/ml, 27° C., 16-20 hours",56.4%
same,Average % conversion,"[15]; substrate carbamazepine, relative MS peak areas",43.6%
same,Average % conversion,[16]; Batch 1,30.9%
same,Average % conversion,[16]; Batch 2,32.7%
same,Average % conversion,[17]; Batch 1,36.7%
same,Average % conversion,[17]; Batch 2,51.6%
same,Average % conversion,[18]; Batch 1,22.9%
same,Average % conversion,[18]; Batch 2,23.3%
